# According to patent publication US20170037111A1, “Novel peptides and combination of peptides for use in immunotherapy against ovarian cancer and other cancers” (immatics biotechnologies GmbH, priority 2015, published 2017):
# Target: HLA-A*02:01 (Homo sapiens, UniProt P04439, D140Y/D185E/D98H/E176V/E277Q/G131W/G231S/I119V/I121R/I166T/I218V/L300P/L318F/N151K/N90K/P208A/P217A/Q86G/Q94H/R138H/R169H/T345S)
# Test: MHC binding assay (UV-ligand exchange, β2m ELISA, peptide exchange yield)
# Conditions: MHC class I binding score; binding to HLA-A*02:01 ranged by peptide exchange yield (UV-ligand exchange, β2m ELISA)
# Summary of the method: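 Peptide–HLA-A*02:01 complexes were formed by UV-mediated exchange of a UV-cleavable ligand for the test peptide. Exchange yield was measured by capturing complexes on streptavidin, detecting with HRP anti-β2m antibody (1 h, 37°C) and reading TMB absorbance at 450 nm.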
row,Peptide exchange,Substance
1,″+++″ (≧50% = +++),272 (ALGNTVPAV; listed as Homo sapiens) [compound 272]
2,″++″ (≧20% = ++),398 (KLLEEDGTIITL; listed as Homo sapiens) [compound 398]
3,″+++″ (≧50% = +++),396 (ALLPDLPAL; listed as Homo sapiens) [compound 396]
4,″+++″ (≧50% = +++),281 (ILRESTEEL; listed as Homo sapiens) [compound 281]
5,″+++″ (≧50% = +++),550 (FLYDEIEAEVNL; listed as Homo sapiens) [compound 550]
6,″+++″ (≧50% = +++),481 (GLIEDYEALL; listed as Homo sapiens) [compound 481]
7,″+++″ (≧50% = +++),577 (VMFEDGVLMRL; listed as Homo sapiens) [compound 577]
8,″+++″ (≧50% = +++),257 (SIFSAFLSV; listed as Homo sapiens) [compound 257]
9,″+++″ (≧50% = +++),495 (FIFSEKPVFV; listed as Homo sapiens) [compound 495]
10,″+++″ (≧50% = +++),401 (ILLDDTGLAYI; listed as Homo sapiens) [compound 401]
11,″++++″ (≧75% = ++++),553 (SLLNQDLHWSL; listed as Homo sapiens) [compound 553]
12,″+++″ (≧50% = +++),467 (FLAKDFNFL; listed as Homo sapiens) [compound 467]
13,″+++″ (≧50% = +++),426 (RLADKSVLV; listed as Homo sapiens) [compound 426]
14,″+++″ (≧50% = +++),573 (ILVANAIVGV; listed as Homo sapiens) [compound 573]
15,″+++″ (≧50% = +++),528 (SVAEGRALMSV; listed as Homo sapiens) [compound 528]
16,″++″ (≧20% = ++),355 (SIQQSIERLLV; listed as Homo sapiens) [compound 355]
17,″+++″ (≧50% = +++),601 (SAFPFPVTV; listed as Homo sapiens) [compound 601]
18,″+++″ (≧50% = +++),439 (YLLQEIYGI; listed as Homo sapiens) [compound 439]
19,″+++″ (≧50% = +++),618 (VLFDSESIGIYV; listed as Homo sapiens) [compound 618]
20,″+++″ (≧50% = +++),500 (SLMEDQVLQL; listed as Homo sapiens) [compound 500]
21,″+++″ (≧50% = +++),529 (LLADELITV; listed as Homo sapiens) [compound 529]
22,″+++″ (≧50% = +++),599 (YLLNDASLISV; listed as Homo sapiens) [compound 599]
23,″+++″ (≧50% = +++),442 (GLLGGGGVLGV; listed as Homo sapiens) [compound 442]

row,Peptide exchange,Substance
1,″++″ (≧20% = ++),504 (GLSDGNPSL; listed as Homo sapiens) [compound 504]
2,″++″ (≧20% = ++),513 (SLWPSPEQL; listed as Homo sapiens) [compound 513]
3,″++″ (≧20% = ++),409 (LLDAMNYHL; listed as Homo sapiens) [compound 409]
4,″+++″ (≧50% = +++),266 (KITDTLIHL; listed as Homo sapiens) [compound 266]
5,″+++″ (≧50% = +++),591 (SMAELDIKL; listed as Homo sapiens) [compound 591]
6,″++″ (≧20% = ++),570 (ALANQIPTV; listed as Homo sapiens) [compound 570]
7,″++″ (≧20% = ++),459 (ALITEVVRL; listed as Homo sapiens) [compound 459]
8,″+++″ (≧50% = +++),592 (RLLSAAENFL; listed as Homo sapiens) [compound 592]
9,″++++″ (≧75% = ++++),340 (ALLSMTFPL; listed as Homo sapiens) [compound 340]
10,″+++″ (≧50% = +++),317 (SLAALVVHV; listed as Homo sapiens) [compound 317]
11,″++″ (≧20% = ++),494 (ALQPEPIKV; listed as Homo sapiens) [compound 494]
12,″+++″ (≧50% = +++),619 (ALQDRVPLA; listed as Homo sapiens) [compound 619]
13,″++″ (≧20% = ++),258 (ELAERVPAI; listed as Homo sapiens) [compound 258]
14,″+++″ (≧50% = +++),572 (ALADLIEKELSV; listed as Homo sapiens) [compound 572]
15,″++″ (≧20% = ++),275 (YLVYILNEL; listed as Homo sapiens) [compound 275]
16,″++++″ (≧75% = ++++),620 (KLLNKIYEA; listed as Homo sapiens) [compound 620]
17,″+++″ (≧50% = +++),575 (YLISQVEGHQV; listed as Homo sapiens) [compound 575]
18,″+++″ (≧50% = +++),436 (HLAEVSAEV; listed as Homo sapiens) [compound 436]
19,″+++″ (≧50% = +++),296 (FMEGAIIYV; listed as Homo sapiens) [compound 296]
20,″++″ (≧20% = ++),373 (SLLEDKGLAEV; listed as Homo sapiens) [compound 373]
21,″++″ (≧20% = ++),461 (VMFRTPLASV; listed as Homo sapiens) [compound 461]
22,″++++″ (≧75% = ++++),527 (FLLEPGNLEV; listed as Homo sapiens) [compound 527]

# Second part, the substance before the results:
row,Substance,Peptide exchange
1,52 (FLLAHGLGFLL; listed as Homo sapiens) [compound 52],″++++″ (≧75% = ++++)
2,186 (TLFFQQNAL; listed as Homo sapiens) [compound 186],″++″ (≧20% = ++)
3,139 (SVMEVNSGIYRV; listed as Homo sapiens) [compound 139],″+++″ (≧50% = +++)
4,95 (SVIPQIQKV; listed as Homo sapiens) [compound 95],″+++″ (≧50% = +++)
5,13 (YLMDESLNL; listed as Homo sapiens) [compound 13],″+++″ (≧50% = +++)
6,72 (SLLELDGINL; listed as Homo sapiens) [compound 72],″+++″ (≧50% = +++)
7,27 (ILADIVISA; listed as Homo sapiens) [compound 27],″+++″ (≧50% = +++)
8,86 (NLIGKIENV; listed as Homo sapiens) [compound 86],″+++″ (≧50% = +++)
9,115 (AIAGAGILYGV; listed as Homo sapiens) [compound 115],″++″ (≧20% = ++)
10,253 (GLDAATATV; listed as Homo sapiens) [compound 253],″++″ (≧20% = ++)
11,46 (ILTEENIHL; listed as Homo sapiens) [compound 46],″+++″ (≧50% = +++)
12,174 (ALAQYLITA; listed as Homo sapiens) [compound 174],″+++″ (≧50% = +++)
13,50 (SLSELEALM; listed as Homo sapiens) [compound 50],″+++″ (≧50% = +++)
14,234 (ALMEDTGRQML; listed as Homo sapiens) [compound 234],″++″ (≧20% = ++)
15,233 (VLSETLYEL; listed as Homo sapiens) [compound 233],″++″ (≧20% = ++)
16,82 (FLSSVTYNL; listed as Homo sapiens) [compound 82],″+++″ (≧50% = +++)
17,256 (FLPPEHTIVYI; listed as Homo sapiens) [compound 256],″+++″ (≧50% = +++)

row,Substance,Peptide exchange
1,117 (ILPDGEDFLAV; listed as Homo sapiens) [compound 117],″+++″ (≧50% = +++)
2,223 (ALLENIALYL; listed as Homo sapiens) [compound 223],″+++″ (≧50% = +++)
3,81 (FLFSQLQYL; listed as Homo sapiens) [compound 81],″++″ (≧20% = ++)
4,219 (KLSDIGITV; listed as Homo sapiens) [compound 219],″+++″ (≧50% = +++)
5,73 (NIFDLQIYV; listed as Homo sapiens) [compound 73],″+++″ (≧50% = +++)
6,153 (FLIANVLYL; listed as Homo sapiens) [compound 153],″+″ (≧10% = +)
7,24 (SLSDGLEEV; listed as Homo sapiens) [compound 24],″++″ (≧20% = ++)
8,134 (YLQELIFSV; listed as Homo sapiens) [compound 134],″+++″ (≧50% = +++)
9,187 (RQISIRGIVGV; listed as Homo sapiens) [compound 187],″+++″ (≧50% = +++)
10,107 (FLQPVDDTQHL; listed as Homo sapiens) [compound 107],″+++″ (≧50% = +++)
11,133 (KVLSNIHTV; listed as Homo sapiens) [compound 133],″++″ (≧20% = ++)
12,210 (LLLNAVLTV; listed as Homo sapiens) [compound 210],″++″ (≧20% = ++)
13,102 (YLFESEGLVL; listed as Homo sapiens) [compound 102],″+++″ (≧50% = +++)
14,176 (YLMEGSYNKVFL; listed as Homo sapiens) [compound 176],″++″ (≧20% = ++)
15,83 (ILAPTVMMI; listed as Homo sapiens) [compound 83],″+++″ (≧50% = +++)
16,251 (ALYTGFSILV; listed as Homo sapiens) [compound 251],″++″ (≧20% = ++)
